B1: Androgen receptor, residues 557 to 632; numbered along this chain, P10275 (parent)
chain: QKTCLICGDEASGCHYGALTCGSCKVFFKRAAEGKQKYLCASRNDCTIDKFRRKNCPSCRLRKCYEAGMTLGARKL
B2: KAT8 regulatory NSL complex subunit 2, residues 28 to 91; numbered along this chain, Q9H9L4 (parent)
chain: CAFTHRPCSHPRLEGQEFCIKHILEDKNAPFKQCSYISTKNGKRCPNAAPKPEKKDGVSFCAEH

± gives the uncertainty stated by the source.

In one series the parent is B1. In words: abundance fitness (aPCA) (normalised: wild type 0, dead -1); higher = more abundant; growth selection in yeast, the domain comes from the species named. The conditions noted are these: Homo sapiens.
Consider QKTCLICGDEASGCHYGALTCGSEKVFFKRAAEGKQKYLCASRNDCTIDKFRRKNCPSCRLRKCYEAGMTLGARKL [C24E], for which the abundance fitness is -0.909 ± 0.063.
Same read-out and setting: the result for QKTCLICGDEASGCHYGSLTCGSCKVFFKRAAEGKQKYLCASRNDCTIDKFRRKNCPSCRLRKCYEAGMTLGARKL [A18S] reads -0.142 ± 0.048; that for QKTCLICGDEASGCHYGALTCGSCKVFFKRAAEGKQNYLCASRNDCTIDKFRRKNCPSCRLRKCYEAGMTLGARKL [K37N], 0.073 ± 0.15; that for QKTCLICGDEASGCHYGALTCGSCKVFFKRAAEGKQPYLCASRNDCTIDKFRRKNCPSCRLRKCYEAGMTLGARKL [K37P], 0.006 ± 0.088.
As for QKTCLICGDEASGCHYGALTCGSCKVFFKRAAEGKQQYLCASRNDCTIDKFRRKNCPSCRLRKCYEAGMTLGARKL [K37Q], the abundance fitness amounted to 0.079 ± 0.081.
Regarding QKTCLICGDEASGCHYGALTCGSCKVFFKRAAEGKQAYLCASRNDCTIDKFRRKNCPSCRLRKCYEAGMTLGARKL [K37A], the abundance fitness is 0.038 ± 0.045.
For QKTCLICGDEASGCHYGALTCGSCKVFFKRYAEGKQKYLCASRNDCTIDKFRRKNCPSCRLRKCYEAGMTLGARKL [A31Y], the abundance fitness was found to be 0.086 ± 0.067.
For the variant QKTCLICGDEASGCHYGALTCGSCKVFFKRVAEGKQKYLCASRNDCTIDKFRRKNCPSCRLRKCYEAGMTLGARKL [A31V], the abundance fitness is -0.128 ± 0.056.
Still for that read-out and setting: then QKTCLICGDEASGCHYGALTCGSCKVFFKRAAEGKQKYLCASRNDCTIDKFRRKNCPDCRLRKCYEAGMTLGARKL [S58D], with -0.029 ± 0.074.
The same measure, in the same setting: then QKTCLICGDEASGCHYGALTCGSCKVFFKRAAEGKQKYLCCSRNDCTIDKFRRKNCPSCRLRKCYEAGMTLGARKL [A41C], with -0.18 ± 0.13.
The same measure, in the same setting: the result for QKTCLICGDEASGCHYGALTCGSCKVFFKRAAEGKQKYLCASRNDCTIDKFRRKNCPSCRLRKCVEAGMTLGARKL [Y65V] reads 0.02 ± 0.059; that for QKTCLICGDEASGCHYGALNCGSCKVFFKRAAEGKQKYLCASRNDCTIDKFRRKNCPSCRLRKCYEAGMTLGARKL [T20N], -0.441 ± 0.21; that for QKTCLICGDEASGCHYGALTCGSCKVFFKRAAEGKQKYLCASRNDCTIDKFRRKNCPSCRLRKCYEAGMTLVARKL [G72V], -0.062 ± 0.075.
With QKTCLICGDEASGCHYGALTCGSCKVFFKRAAEGKQKYLCASRNDCTIDKFRRKNCPSCRLRKCYEAGMTLKARKL [G72K], the abundance fitness was -0.134 ± 0.14.
For the variant QKTCLICGDEASGCHYGALTCGSCKVFFKRAAEGKQKYLGASRNDCTIDKFRRKNCPSCRLRKCYEAGMTLGARKL [C40G], the abundance fitness is -0.891 ± 0.092.
On the same count and under the same terms, then QKTCLICGDEASGCHYGALTCMSCKVFFKRAAEGKQKYLCASRNDCTIDKFRRKNCPSCRLRKCYEAGMTLGARKL [G22M], with -0.163 ± 0.052; and QKTCLICGDEASGCHYGALTCHSCKVFFKRAAEGKQKYLCASRNDCTIDKFRRKNCPSCRLRKCYEAGMTLGARKL [G22H], with -0.152 ± 0.068; and QKTCLICGDEASGCHYGALTCGSCKVFFRRAAEGKQKYLCASRNDCTIDKFRRKNCPSCRLRKCYEAGMTLGARKL [K29R], with -0.075 ± 0.057.
The same measure, in the same setting: the result for QKTCLICGDEASGCHYGALTCGSCKVFFKRAAEGKQKYLCASRNDCTIDKFRRKNCASCRLRKCYEAGMTLGARKL [P57A] reads -0.011 ± 0.06; that for QKTCLICGDEASGCHYGALTCGSCKVFFKRAAEGKQKYLCASRNDCTIDKFRRKNCLSCRLRKCYEAGMTLGARKL [P57L], -0.075 ± 0.063; that for QKTCLICGDEASGCHYGALTCGSCKVFFKRAAEGKQKYLCASRNDCTIDKFRRKNCPSCRLRKCYEAGMTIGARKL [L71I], -0.021 ± 0.068.
QKTCLICGDEASGCPYGALTCGSCKVFFKRAAEGKQKYLCASRNDCTIDKFRRKNCPSCRLRKCYEAGMTLGARKL [H15P]: the abundance fitness was -0.27 ± 0.13.
The same measure, in the same setting: the result for QKTCLICGDEASGCTYGALTCGSCKVFFKRAAEGKQKYLCASRNDCTIDKFRRKNCPSCRLRKCYEAGMTLGARKL [H15T] reads 0.045 ± 0.1.
On the same count and under the same terms, the result for QKTCLICGDEASGCHYGALTCGSCKVFFKRAAEGGQKYLCASRNDCTIDKFRRKNCPSCRLRKCYEAGMTLGARKL [K35G] reads -0.031 ± 0.039.
Same read-out and setting: then QKTCLICGDEASMCHYGALTCGSCKVFFKRAAEGKQKYLCASRNDCTIDKFRRKNCPSCRLRKCYEAGMTLGARKL [G13M], with -0.163 ± 0.083.
Turning to QKTCLICGDEASSCHYGALTCGSCKVFFKRAAEGKQKYLCASRNDCTIDKFRRKNCPSCRLRKCYEAGMTLGARKL [G13S], the abundance fitness was -0.034 ± 0.074.
As to QKTCLICGDEASWCHYGALTCGSCKVFFKRAAEGKQKYLCASRNDCTIDKFRRKNCPSCRLRKCYEAGMTLGARKL [G13W], the abundance fitness is -0.571 ± 0.12.
The same measure, in the same setting: then QKTCLRCGDEASGCHYGALTCGSCKVFFKRAAEGKQKYLCASRNDCTIDKFRRKNCPSCRLRKCYEAGMTLGARKL [I6R], with -0.525 ± 0.11; and QKTCLICGDEASGCHYGALTCGSCEVFFKRAAEGKQKYLCASRNDCTIDKFRRKNCPSCRLRKCYEAGMTLGARKL [K25E], with 0.044 ± 0.026; and QKTCLICGDEASGCHYGALTCGSCNVFFKRAAEGKQKYLCASRNDCTIDKFRRKNCPSCRLRKCYEAGMTLGARKL [K25N], with 0.014 ± 0.032.
Same read-out and setting: the result for QKTCMICGDEASGCHYGALTCGSCKVFFKRAAEGKQKYLCASRNDCTIDKFRRKNCPSCRLRKCYEAGMTLGARKL [L5M] reads -0.212 ± 0.083; that for QKTCLICGDEASGCHYPALTCGSCKVFFKRAAEGKQKYLCASRNDCTIDKFRRKNCPSCRLRKCYEAGMTLGARKL [G17P], -0.691 ± 0.092; that for QKTCLICGDEASGCHYMALTCGSCKVFFKRAAEGKQKYLCASRNDCTIDKFRRKNCPSCRLRKCYEAGMTLGARKL [G17M], -0.229 ± 0.057.
On the same count and under the same terms, the result for QKTCLICGDEASGCHYGALTCGSCKVFFKRAAEGKQKYLCASRNDCRIDKFRRKNCPSCRLRKCYEAGMTLGARKL [T47R] reads -0.108 ± 0.031; that for QKGCLICGDEASGCHYGALTCGSCKVFFKRAAEGKQKYLCASRNDCTIDKFRRKNCPSCRLRKCYEAGMTLGARKL [T3G], -0.078 ± 0.06; that for QKTCLICGDEASGCHYGALTCGSCKVFFKRAAEGKQKYLCASRNDCTIDKFLRKNCPSCRLRKCYEAGMTLGARKL [R52L], -0.044 ± 0.052.
Consider QKTCLICGDEASGCHYGALTCGSCKVFFKRAAEGKQKYLCASRNDCTIDKFYRKNCPSCRLRKCYEAGMTLGARKL [R52Y], for which the abundance fitness is -0.09 ± 0.068.

Another series covers variants of B2. The series is described as above. The settings on record: Homo sapiens.
For CAFTHRPCSHPRLEGQEFCIKHILEDKNAPFKQCSYISTKNGKRCPNAAPKPEKKDGVSFCREH [A62R], the abundance fitness is -0.028 ± 0.035.
With CAFTHRPCSHPRLEGQEFCIKHILEDKNAPFKQCSYISTKNGKRCPNAAPKPEKKDGVSFCTEH [A62T], the abundance fitness is -0.065 ± 0.059.
